Results from the supplement of paper PMC9170038.

Test system: MS2 coat protein
Assay: apparent KD of MS2 coat protein; higher = weaker reporter binding
Conditions: Eterna round: R107
Procedure, shortened: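 Normalised binding curves from single clusters were fitted, and the median fit for each design is given as apparent KD. The clusters held designed RNA switches transcribed on-chip from Illumina sequencing clusters. These were titrated with SNAP-549-labelled MS2 coat protein (twofold steps from 0.7 or 1.5 nM to 3 µM, 0.8–1.5 h to 10–20 min per step) in 100 mM Tris-HCl pH 7.5, 80 mM KCl, 4 mM MgCl2, without or with constant ligand.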

[1] = input ligand: theophylline 20 uM
[2] = input ligand: theophylline 2 mM
[3] = input ligand: tryptophan 2.4 mM

Sequence	apparent KD of MS2 coat protein (input ligand: arginine 13.2 mM)	apparent KD of MS2 coat protein [1]	apparent KD of MS2 coat protein [2]	apparent KD of MS2 coat protein [3]	apparent KD of MS2 coat protein (input ligand: none)
GAGGCACGGUCGGCCGCCACUACAGCAGUGGUCCGCCAAGCGAGGUACAUGAGGAUCACCCAUGUUAGGACCGGGACCUGUUUUU [theeternabot_exclusion_MS2_Trp_B_27]	0.0202 µM	0.0246 µM	0.0255 µM	–	–
AUAAUGAGUGGUGGAUAGGUGAUCCUCUUACGAGGACCGGUACGGCCGCCACUCGAUAACAUGAGGAUCACCCAUGUAAUAAUAA [|T'-M'-Trp-Ms2|_Design19]	0.021 µM	0.0226 µM	0.0189 µM	–	–
ACGAUAGGACAUGAGGAUCACCCAUGUGAUACCAGCCUGGAAACAGGCCCUUGGCAGCACAAAUACUCCAGAAACCUAUCGAAAA [MAT - Exclusion Theophlline A - Mod of Eli - D5]	0.103 µM	0.263 µM	–	0.337 µM	–
UCGCUCGCCGAAAGGCGAGCGAGUUGCGAUACCAGCCCGGAAACGGGCCCUUGGCAGCGCACAUGAGGAUCACCCAUGUCAUGUU [#1 Exclusion - Theophylline A Attempt #3 (HarryS)]	0.0134 µM	0.0253 µM	0.0587 µM	0.0313 µM	0.0194 µM
GGCCCGGACUUGGAAUGGGUGUUUCCUUCACGAGGACCGGUACGGCCGCCACUCGAAGACAUGAGGAUCACCCAUGUAGUCGACC [Soleti]	0.0203 µM	0.1 µM	0.0411 µM	0.0182 µM	0.0217 µM
GGGCGCUAUCCCGCGAGGGAUAGCGUUCGACGAGGACCGGUACGGCCGCCACUCGAACGAGUGGUGACAUGAGGAUCACCCAUGU [Naa]	0.0287 µM	0.0567 µM	0.0594 µM	0.0497 µM	0.053 µM
UAAACAUGAGGAUCACCCAUGUUGGAUGAAGGAGCGACCAGAGGGUCAGGUAGGUCGCAUCACAUGAGGAUCACCCAUGUCAUUU [DOUBLE!!! :-D #12]	0.0591 µM	0.114 µM	0.147 µM	0.0977 µM	0.108 µM
CUAUGCAGGUCGGCCGCCACUACACACAUGAGGAUCACCCAUGUAGUUACUGGGUGAAGUGGCAGUAGGACCGGGACCUGCACAU [Brourdmod15]	0.19 µM	0.578 µM	0.659 µM	0.229 µM	0.48 µM
ACAUGAGGAUCACCCAUGUAUUACCGGGAAGGAGCGGCCGCAAGGCCAGGUAGGUCGCUCGGUGUCGUGCUGUAAAGCACGACAA [#1 Same State - Arginine A Attempt #29 (HarryS)]	0.0119 µM	0.0167 µM	0.0115 µM	0.00961 µM	0.0102 µM
GCACCAGGUACGGAUACCAGCUAUAGGUACAGCGGAGGACAUGAGGAUCACCCAUGUGGUAGCCCUUGGCAGCUGUACCUGGUGC [EThB NP+V+V2 #1 +-Same Structure]	0.0177 µM	0.0239 µM	0.0404 µM	0.0155 µM	0.0149 µM
AGUUAAAUAUGUUAAUAACUAUUUACUGAAGGAGCGUGUUUUGACACAGGUAGGUCGCAGUGACAUGAGGAUCACCCAUGUCGUA [#08 Same State - Arginine A]	0.0203 µM	0.0218 µM	0.0216 µM	0.0192 µM	0.0174 µM
AGAUUUAUUUUGACCGGGCUCAUUCCUGAAGGAGCGCAGAACAAUGCAGGUAGGUCGCAGGACAUGAGGAUCACCCAUGUCAAGC [Isaes]	0.0142 µM	0.0183 µM	0.0199 µM	0.0188 µM	0.0207 µM
GUGCGGUUUGAUGAUACCAGAUGUGGUGGGAACAUGAGGAUCACCCAUGUUGUGAAACAGGUCCCUUGGCAGCAUGAGUGAGCUU [TheoB-ms2@32-1]	0.0973 µM	0.255 µM	0.29 µM	0.0555 µM	0.103 µM
GACCUUAUCUGAAGGAGCGAGGUAAAUAGGGAUGAGCAUACAUGAGGAUCACCCAUGUGGCCUCAGGUAGGUCGCAGAUGAGAUU [Exclusion Arginine B GF27]	0.0775 µM	0.155 µM	0.149 µM	0.105 µM	0.113 µM
CCAUAGGGUAAAUACAUAAUCAUAUCUGAAGGAGCGUGGAUAAACACAGGUAGGUCGCAGAAUCACAUGAGGAUCACCCAUGUCU [Same State Arginine A GF11]	0.0245 µM	0.0535 µM	0.0526 µM	0.0365 µM	0.0361 µM
GGCCCGGACUUGGAAUGGGUGUUUCCCUCACGAGGACCGGUACGGCCGCCACUCGAAGACAUGAGGAUCACCCAUGUAGUCGACA [Qudirate]	0.0312 µM	0.078 µM	0.138 µM	–	–
AAACAUGAGGAUCACCCAUGUUCUCGUGUCCGAGGACCGGUACGGCCGCCACUCGGUUCUCGCGAGGAUGGUCAAAGACUAUCCA [Omei Trp A SS B v6]	0.0229 µM	0.0536 µM	0.0466 µM	0.029 µM	0.0451 µM
UGACGAGGCCUGGAUACCAGCGACAUGAGGAUCACCCAUGUAUGAGGAUCAGCCAUGUUAUGCCCUUGGCAGCCACGAAGGUCAG [WQQMULLIN]	0.0216 µM	0.0382 µM	0.22 µM	0.0229 µM	0.0254 µM
UCGUUUGAGGCGGCCGCCACUGGUCUCAUGGUCAACAUGAGGAUCACCCAUGUAUCUUUGCUAAGCAGGACCGGGCCUCGAGCGA [#19 Exclusion Tryptophan B]	0.0435 µM	0.0874 µM	0.0875 µM	–	–
CCUAUGCAGUCGGCCGCCACUGAACAUGAGGAUCACCCAUGUUUUUAUAAAUAUGGUCCUAUAAUCAGGACCGGGACUGUAUAGG [Ex Tryptophan B 9]	0.0383 µM	0.0597 µM	0.0646 µM	0.0692 µM	0.0692 µM

Sequence	apparent KD of MS2 coat protein (input ligand: arginine 13.2 mM)	apparent KD of MS2 coat protein [1]	apparent KD of MS2 coat protein [2]	apparent KD of MS2 coat protein [3]	apparent KD of MS2 coat protein (input ligand: none)
AGAGUCAGACAAAAGUCUGGCUCAGCCGAAGGAGCGUCCGAAAGGACAGGUAGGUCGCGGUUGCAUGAGGAUCACCCAUGUUCCU [ArgAS 30 #OpenEnded #AlternativeMS2]	0.0767 µM	0.399 µM	0.528 µM	0.324 µM	0.286 µM
AUCGUACCUGAUGAUACCAGCAUGUGAUCAUAACAUGAGGAUCACCCAUGUAAUCAGUGAUGCCCUUGGCAGCAUAGUCGAUACA [Same State - Theophylline B (Freestyle 6)]	0.0808 µM	0.174 µM	–	0.149 µM	–
ACUCGAGGUGGAAGGAGCGGGAGACAUGAGCAUCACAUGAGGAUCACCCAUGUAGGAUCAUCCCAGGUAGGUCGCCAUGUCGAAA [avtamullin]	0.105 µM	0.147 µM	0.276 µM	0.165 µM	0.217 µM
AGGAAAACAUGAGCAAAGCUCAUGUGCGAAGGAGCGGCGGAAACGCCAGGUAGGUCGCGCACAUGAGCAUCAGCCAUGUGUAUCA [Omei Arginine B SS A v4]	0.0395 µM	0.0788 µM	0.409 µM	0.0316 µM	0.0423 µM
GGCACCGGGCGAAGGAGCGUGAAGACAUGAGGAUCACCCAUGUAGAGGCCCGGACAGGGUUCGCAGGUAGGUCGCGCGCGGUGCC [#1 Same State - Arginine B Attempt #8 (HarryS)]	0.0212 µM	0.0223 µM	0.0168 µM	0.0169 µM	0.0145 µM
GCAUGUGGAGUCUUACUAGAGAGGACAGAUACCAGUAAGAUGUGAUACCCUUGGCAGCUGCGAUUUACAUGAGGAUCACCCAUGU [X-TheoA-ms2@67]	0.0192 µM	0.0214 µM	–	0.0247 µM	–
AGCAGAUCCCAGCGAAAGCUGGGAUCUGCACGAGGACCGGUACGGCCGCCACUCGAGGACAUGAGGAUCACCCAUGUACCGGUCA [Glorfindel]	0.174 µM	0.0646 µM	0.238 µM	0.0783 µM	0.0758 µM
CGAUCUUUCGAAAGAAGGAUCGAUUCUGAUACCAGAGACGAAAGUCUCCCUUGGCAGCAGUGCCAACAUGAGGAUCACCCAUGUA [Theophylline A 8]	0.0264 µM	0.026 µM	–	0.0236 µM	–
CAAACAUGAGGAUCACCCAUGUAAACCGAAGGAGCGACGCAUAAGUCAGGUAGGUCGCGGAAGAUAAAAUAGAACACUGGGCACA [Same State Arginine A GF1]	0.0182 µM	0.0192 µM	0.0173 µM	0.0191 µM	0.0177 µM
ACCUCAUGUAGAAGGAGCGUCAGAAGCUACAGACAUGAGGAUCACCCAUGUUAGUUGAUCUGACAGGUAGGUCGCUACAGCAGGA [#23 Same State - Arginine B]	0.0241 µM	0.0439 µM	0.0356 µM	0.0318 µM	0.0323 µM
UAAACACAUGAGGAUCACCCAUGUCAUGAUACCAGUCAACAUGAGGACCCUUGGCAGCAUAAAAUGGGUAACAUGAGGAUCACCC [AstrosEXyTheA#2]	0.0462 µM	0.0784 µM	–	0.0515 µM	–
GCGUACGAUCGGGAUACCAGACAUUGCCGUUAGGGUGAACCUGAGGAACACCCAGGUUUUGUCCCUUGGCAGCCCGAUCGUACGC [ETB NP+V+V2 #8 Diff Apt, Same Structure]	0.0206 µM	0.0658 µM	0.136 µM	0.0275 µM	0.0196 µM
CCCGUAAAGGCGGCCGCCACUGUAUGACAUGAGGAUCACCCAUGUAGGGAAAAUGCGAUGGUCGUCAGGACCGGGCCUCUGGCAU [theeternabot_exclusion_MS2_Trp_B_5]	0.0174 µM	0.0293 µM	0.0282 µM	–	–
CCUAUGCAGUCGGCCGCCACUGAAAUCAAUAAGAUUACCUCAGAAACAUGAGGAUCACCCAUGUACAGGACCGGGACUGUAUAGG [Ex Tryptophan B 16]	0.0206 µM	0.0418 µM	0.0372 µM	0.0843 µM	0.04 µM
AUAACAUGAGGAUCACCCAUGUAAGCUGAAGGAGCGCUGGAAACAGCAGGUAGGUCGCAGCUACCUACCACCUCAUGAGGUAGGU [(M1)-(M2)-(Arg1)-(Arg2)-(A)'-(M)'-(A)''_Design6]	0.0164 µM	0.0244 µM	0.0259 µM	0.019 µM	0.0185 µM
AGAGUCAGACAAAAGUCUGGCUCAGCCGAAGGAGCGUCCGAAAGGACAGGUAGGUCGCGGUUCCAUGAGGAUCACCCAUGGUCCU [ArgAS 28 #OpenEnded #AlternativeMS2]	0.0471 µM	0.0851 µM	0.119 µM	0.0711 µM	0.085 µM
UGCAUGAUCUGAAGGAGCGUGUAUGAUGAUAACAUGAGGAUCACCCAUGUCGAGACGGUAACACAGGUAGGUCGCAGAUCAUGCU [Arg B SS t4]	0.0214 µM	0.0317 µM	0.0283 µM	0.0247 µM	0.0232 µM
AAACGCCACGGAAGGAGCGACAUGAGGAUCACCCAUGUAGAUUUGGCGGAUGCACCCUCCUGUCAGGUAGGUCGCCGUGCGCUAA [XArg-B24]	0.0518 µM	0.0902 µM	0.0999 µM	0.1 µM	0.061 µM
UUGUUGUUUGGAAGGAGCGUGUAAGAUUAAGAACAUGAGGAUCACCCAUGUUGUAAGGUAGCACAGGUAGGUCGCCGGGUGGUGG [11.T]	0.0193 µM	0.0244 µM	0.0176 µM	0.0151 µM	0.0144 µM
